According to patent US20070053902 (published 2007):
Like-named read-outs stand apart in the source and are kept apart here.

T1: human integrin alphavbeta3 (human, UniProt P06756)
T1 chain 1: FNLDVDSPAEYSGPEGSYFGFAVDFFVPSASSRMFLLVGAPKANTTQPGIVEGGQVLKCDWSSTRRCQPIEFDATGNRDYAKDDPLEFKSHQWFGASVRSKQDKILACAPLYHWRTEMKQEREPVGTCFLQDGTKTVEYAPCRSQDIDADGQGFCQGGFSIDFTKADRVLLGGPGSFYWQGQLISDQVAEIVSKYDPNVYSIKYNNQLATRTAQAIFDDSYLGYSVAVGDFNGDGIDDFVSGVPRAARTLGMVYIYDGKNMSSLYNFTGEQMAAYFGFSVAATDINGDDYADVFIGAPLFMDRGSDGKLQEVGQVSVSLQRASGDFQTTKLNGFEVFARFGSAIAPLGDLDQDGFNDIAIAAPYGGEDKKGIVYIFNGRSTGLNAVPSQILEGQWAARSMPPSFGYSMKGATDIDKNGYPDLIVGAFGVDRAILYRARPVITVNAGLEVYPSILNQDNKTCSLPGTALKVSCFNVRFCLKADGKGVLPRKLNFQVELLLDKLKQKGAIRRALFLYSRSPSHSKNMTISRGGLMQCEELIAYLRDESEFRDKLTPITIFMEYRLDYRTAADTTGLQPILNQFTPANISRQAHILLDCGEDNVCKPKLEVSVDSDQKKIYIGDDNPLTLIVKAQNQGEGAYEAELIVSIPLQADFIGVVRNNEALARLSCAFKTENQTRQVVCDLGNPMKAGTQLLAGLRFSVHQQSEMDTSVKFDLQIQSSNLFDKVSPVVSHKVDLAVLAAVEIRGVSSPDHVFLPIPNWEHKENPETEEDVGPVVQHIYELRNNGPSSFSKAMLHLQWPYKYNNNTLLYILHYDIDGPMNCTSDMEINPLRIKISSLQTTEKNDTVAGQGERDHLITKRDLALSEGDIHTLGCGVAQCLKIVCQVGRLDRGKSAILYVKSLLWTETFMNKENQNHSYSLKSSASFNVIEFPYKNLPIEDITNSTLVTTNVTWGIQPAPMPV
T1 chain 2: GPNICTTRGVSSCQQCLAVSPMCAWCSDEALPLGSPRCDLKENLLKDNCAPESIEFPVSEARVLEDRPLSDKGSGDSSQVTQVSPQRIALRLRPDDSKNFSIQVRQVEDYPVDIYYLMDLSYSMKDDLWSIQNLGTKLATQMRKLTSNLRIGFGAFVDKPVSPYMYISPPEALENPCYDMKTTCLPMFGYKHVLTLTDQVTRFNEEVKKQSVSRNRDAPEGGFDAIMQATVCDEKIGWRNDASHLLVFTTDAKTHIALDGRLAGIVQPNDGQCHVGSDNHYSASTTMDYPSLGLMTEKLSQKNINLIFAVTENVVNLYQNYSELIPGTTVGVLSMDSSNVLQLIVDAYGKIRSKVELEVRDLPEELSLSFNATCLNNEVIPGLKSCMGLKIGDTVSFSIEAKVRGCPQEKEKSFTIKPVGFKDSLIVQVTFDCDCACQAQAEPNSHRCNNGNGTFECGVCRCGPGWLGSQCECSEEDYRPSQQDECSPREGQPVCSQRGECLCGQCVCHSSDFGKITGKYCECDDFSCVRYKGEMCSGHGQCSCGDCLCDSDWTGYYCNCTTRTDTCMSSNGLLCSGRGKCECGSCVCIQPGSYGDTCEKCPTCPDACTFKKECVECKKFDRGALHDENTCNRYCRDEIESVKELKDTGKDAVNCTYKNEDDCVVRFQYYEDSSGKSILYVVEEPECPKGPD


Key:
[1] = target: T1, human integrin alphavbeta3; experiment: SPR
[2] = target: T1, human integrin alphavbeta3; experiment: SPR

Kd [1]	Kd [2]	Binder
1.1 nM		HZD12-IgG4 (antibody, V domains shown) VH: QVQLVQSGAEVKKPGASVKVSCKASGYAFTSYNMYWVRQAPGQGLEWIGYIDPYNGDTFYNQKFKGKATLTVDKSTSTAYMELSSLRSEDTAVYYCARQNYGSFAYWGQGTLVTVSS VL: DIVLTQSPGTLSLSPGERATLSCRASQSISNHLHWYQQKPGQAPRLLIKYASQSISGIPSRFSGSGSGTDFTLTISRLEPEDFAVYYCQQSNSWPFTFGQGTKVEIK
1 nM		HZD12-IgG1 (antibody, V domains shown) VH: QVQLVQSGAEVKKPGASVKVSCKASGYAFTSYNMYWVRQAPGQGLEWIGYIDPYNGDTFYNQKFKGKATLTVDKSTSTAYMELSSLRSEDTAVYYCARQNYGSFAYWGQGTLVTVSS VL: DIVLTQSPGTLSLSPGERATLSCRASQSISNHLHWYQQKPGQAPRLLIKYASQSISGIPSRFSGSGSGTDFTLTISRLEPEDFAVYYCQQSNSWPFTFGQGTKVEIK
1.3 nM	0.53 nM	murine D12 (antibody, V domains shown) VH: EIQLQQSGPEVVKPGASVKVSCKASGYAFTSYNMYWVKQSHGKSLEWIGYIDPYNGDTFYNQKFKGKATLTVDKSSSTAYMHLNSLTSEDSAVFYCARQNYGSFAYWGQGTLVTVSA VL: DIVLTQSPATLSVTPGDSVSLSCRASQSISNHLHWYQQRSHESPRLLIKYASQSISGIPSRFRGSGSGTDFTLNINILETEDFGMYFCQQSNSWPFTFGSGTNLEIKR
